From the DeepSol protein solubility set

experiment: soluble on expression in E. coli; label from the status in PepcDB or PDB records

| Sequence | soluble on expression in E. coli |
| --- | --- |
| MGSDKIHHHHHHMVIHKETMRSANEKSVLQRIFTEGPISKSQVARDVSLNKVTVSQIINKFISSRLVVEAGSGDSTQQGGRKPELVQINSKYGYVVCIDLGYQELSVLSMSINGQKLDSRHTIFGNDDINIAIEKIYEILVEFQEMHKERLLGLLVSIHGIVHKNQVIYSPFWNMKQIDLADTLSKKFDIPVILENEANLTATFERDYSVNEIQNAVSISMHKGIGAGIIIDGELYRGRKGEAGEIGQTVAFESENQSLEKSNKIEDVCSPQVILARIKNAKKLEYINWQLVRQMFDDKDQETLEILKEFENNVAKIINNVIVSFDPDVLVVNAYIFKEFPEILERISNGFAHVSVRNTPIVLSENVKNASLYGGCAQMIRTILGVSKLKLQYKK | not soluble |
| MPASYAYLGPEGTFTEVALRTLPEAATRELVPMVSVPAALDAVRNGEAEAAFVPIENSVEGGITTTLDELVAGEPLMIYREVLLSITFALLVRPDTKLSEIKTVTAHPAAQPQVRNWMKANLPDVVWESAASNADGARLVQEGRYDAAFAGEFAAAKYGLVPLETGIHDAENAQTRFVLVGRPAR | not soluble |
| MISIKVLFFGEACQLVGKREEAIDFPEETDYEEIRKTILENYPALQKIEKVMMLAVDQEYANPGDRFELVRFTEIAVIPPLSGG | soluble |
| MSEITLGKYLFERLKQVNVNTVFGLPGDFNLSLLDKIYEVEGMRWAGNANELNAAYAADGYARIKGMSCIITTFGVGELSALNGIAGSYAEHVGVLHVVGVPSISAQAKQLLLHHTLGNGDFTVFHRMSANISETTAMITDIATAPAEIDRCIRTTYVTQRPVYLGLPANLVDLNVPAKLLQTPIDMSLKPNDAESEKEVIDTILVLDKDAKNPVILADACCSRHDVKAETKKLIDLTQFPAFVTPMGKGSIDEQHPRYGGVYVGTLSKPEVKEAVESADLILSVGALLSDFNTGSFSYSYKTKNIVEFHSDHMKIRNATFPGVQMKFVLQKLLTTIADAAKGYKPVAVPARTPANAAVPASTPLKQEWMWNQLGNFLQEGDVVIAETGTSAFGINQTTFPNNTYGISQVLWGSIGFTTGATLGAAFAAEEIDPKKRVILFIGDGSLQLTVQEISTMIRWGLKPYLFVLNNDGYTIQKLIHGPKAQYNEIQGWDHLSLLPTFGAKDYETHRVATTGEWDKLTQDKSFNDNSKIRMIEVMLPVFDAPQNLVEQAKLTAATNAKQ | soluble |
| MSDALTLTAAKKNARNRIRAARLARSTADLHADNAAILNQLTALIRTINATRAAAYMPEVTEPGGVDFADNLTGILSELWIPKSLPNRQLVWGHYSGGDSVERGTFGILEPTTPSRSSDILHDVDLIIVPALGITPSGRRLGQGAGYYDRALAGVATPTVAILFDSEVNTTIPFEPHDATCDWIITPEGTKQVT | not soluble |
| MGHHHHHHGGHMSLSDDNSHSSDTISNKKGFFSLLLSQLFHGEPKNRDELLALIRDSGQNDLIDEDTRDMLEGVMDIADQRVRDIMIPRSQMITLKRNQTLDECLDVIIESAHSRFPVISEDKDHIEGILMAKDLLPFMRSDAEAFSMDKVLRQAVVVPESKRVDRMLKEFRSQRYHMAIVIDEFGGVSGLVTIEDILELIVGEIEDEYDEEDDIDFRQLSRHTWTVRALASIEDFNEAFGTHFSDEEVDTIGGLVMQAFGHLPARGETIDIDGYQFKVAMADSRRIIQVHVKIPDDSPQPKLDEEGGS | soluble |
| MSLSDRLTAFKELIQAGGAKRPADLIIKNGQLVNVMTAEIYPAEVAIYQGKIVAVDPDVSAYQGTETRVIDAKQQYIVPGLIDGHIHVECSKLSMTSFAEAVVPHGTTSIISGLDEYISVIGVDGLSEIFKEVDQLPMRVFWGAPFKTPYTIPASTIADNIDSTVQAQLQKRSDVYGVWETVREAVETLDEDTLKTLLNAQDNHVPVWGCAPMATGTKLNEYLMSGVRVDHESYDHQELLEKVRKGINVVIRESSVTHFLAENIRAITETNGQIARHVSFCTDDVNAMDIVNKGHLDHLVRLAIAAGVAPMTAIQMATINSAEAYRIDDQVGLIAPGRNADILLVSDLEAFEIKRVLAKGQPVATDGHINQSIERPVRPASLANTIIREAVQASDFEYHVAADASQVTVQTIASEGPFVRHAKTKTLTVEDGIVQIDPAKDVALISVLERFGKNGNQSLGFTSGWTLKKGAMASTAAPDDNNIIVMGVNPDDMALAVNTLIERDGGQVVVADGQILSFLPLPIAGIVSDVTPAELAVQEEGILKASQAIGSEVVDPMFYMTFLPITAIPDLAITDLGNVDCNELRLFDPILTIQEGHHHHHH | soluble |
| MSLADSSYYDEDYRPQYHFTPEANWMNDPNGMVYYAGEYHLFYQYHPYGLQWGPMHWGHAVSKDLVTWEHLPVALYPDEKGTIFSGSAVVDKNNTSGFQTGKEKPLVAIYTQDREGHQVQSIAYSNDKGRTWTKYAGNPVIPNPGKKDFRDPKVFWYEKEKKWVMVLAAGDRILIYTSKNLKQWTYASEFGQDQGSHGGVWECPDLFELPVDGNPNQKKWVMQVSVGNGAVSGGSGMQYFVGDFDGTHFKNENPPNKVLWTDYGRDFYAAVSWSDIPSTDSRRLWLGWMSNWQYANDVPTSPWRSATSIPRELKLKAFTEGVRVVQTPVKELETIRGTSKKWKNLTISPASHNVLAGQSGDAYEINAEFKVSPGSAAEFGFKVRTGENQFTKVGYDRRNAKLFVDRSESGNDTFNPAFNTGKETAPLKPVNGKVKLRIFVDRSSVEVFGNDGKQVITDIILPDRSSKGLELYAANGGVKVKSLTIHPLKKVWGTTPFMSNMTGWTTVNGTWADTIEGKQGRSDGDSFILSSASGSDFTYESDITIKDGNGRGAGALMFRSDKDAKNGYLANVDAKHDLVKFFKFENGAASVIAEYKTPIDVNKKYHLKTEAEGDRFKIYLDDRLVIDAHDSVFSEGQFGLNVWDATAVFQNVTKESEGHHHHHH | soluble |
| GPGSMSSADLFKKFTLQNVAQIANSSHKEQMQVRHDLAEQYPQLADFWEDIMPRKSDIMLVRCHDQVHCVTLVSAQPEVLFFNHHNGPYIPHLKLLHKYPFILQRHQVDVGACKHVLSGANIMCPGLTSKGGYITPEIPAGQLVAVYVETKEHAVAIGKTLMSSEEIKKVNSGPCIENIHHVGDGLWMNRVLSASHIGAR | soluble |
| GPGSMNPHSRMPEDGGNAQPNETHRLMVGAAGQRPNVSGQFGKSTSPSLVAFAFLHLPLEDGCGAEEEEQNFLAFDVTTWATRIRNEGISGAVVDLWGAYNYYWHQADDRVQLALDSLASWMHALEMDRDPADRFTDLGRILLQVFWLQMMVTTANPGITISTLCARLHMAVHEAETCARATKPLA | soluble |
| MHLNANLKYCCLWKLQSPHSCVPMLVWNCSLHPPSQYCSPLFETAVAENINRLSSHCIKKKSIQRGEKMKQTLRLLGAVTLLGITGCQFNQPPVSSIGAWEKPGADFTEIGKALLECGMPTPYDRDPENDNRSFNQMATIDACMLQAGFRYKYDVGGGMVWKS | not soluble |
| MLETRATTAKQLVQAPEQPAPQPEVAPPTTEQPAPAPAPGTTPGTENFNTPNATPETTEPRVLVSEVLVRPQSGQLTPELETQVYNVIRTQPGRTTTRSQLQEDINAIFGTGFFSNVQASPEDTPLGVRVSFIVQPNPVLSKVEIQANPGTNVPSVLPQATADEIFRAQYGKILNLRDLQEGIKELTKRYQDQGYVLANVVGAPQVSENGVVTLQVAEGVVENISVRFRNKEGQDVNEQGQPIRGRTQDYIITREVELKPGQVFNRNTVQKDLQRVFGTGLFEDVNVSLDPGTDPTKVNVVVNVVERSLEHHHHHH | soluble |
| MSLDSSMKISKVDNIGNHEDIEVNNAEIALSLASQMVGSGEEVVSMSIKYSKERVAFGKPIGSYQAIKHRVVNDAIDVELARSLILEAAENIKYAWIAKDLANKKIPKAILSGIQVHGGIGFTDDLDIHLHLRRALTLSKLYNSKVNISEFLQPIEGHHHHHH | not soluble |
| MKKWKVRSALVALIVLLAGCSSNAQYNSSASGNVGTAWGGDVHSTVQGVSAERAWRDPAEMIVISYSTNVPSGYDRVYSIRINELEYAIRDGNFNSLPITRVYDSSNNEPRYIVHARVGMNYQLYVRNYSRNTNYEIVATVDGLDVLNGKQGSLNNNGYIVNAGDSLAIKGFRKDKHTEAAFQFANVADSYAANSAQGDVRNTGVIGFAAFELQGQAQNALPPCSGQAFPADNNGYAPPPCRK | not soluble |
| MKKILLLILITGLFSFGNSKNKIPTRKFTSVKISGPRYRLEGAFGILSSKENSSYMNNRFISNSISLLSEWKVQVNEKIDATFGPKVTLDFSFSIFKGLYTYKPNLNLGAEANFNYRIKEKMKVYGGVEIGTGVGISIENANIHKTILTTISKISVGVKINDKYNIGVYLGNNIKGMLGIEAGYTF | not soluble |
| GPLGSCDSGTGLTGNYSQDTLTVIATLREAIDLPQDAPNRQEVQDTARGQINDYISRYRRKGDAGGLKSFTTMQTALNSLAGYYTSYGARPIPEKLKKRLQLEFTQAERSIERGV | soluble |
| MGSDKIHHHHHHMSVLNAKECVSPITRSVKYHQQSAEIRALQLQSYKMAKMALDNNLKLVKDKKPAVILDLDETVLNTFDYAGYLIKNCIKYTPETWDKFEKEGSLTLIPGALDFLEYANSKGVKIFYISNRTQKNKAFTLKTLKSFKLPQVSEESVLLKEKGKPKAVRRELVAKDYAIVLQVGDTLHDFDAIFAKDAKNSQEQRAKVLQNAQKFGTEWIILPNSLYGTWEDEPIKAWQNKK | not soluble |
| EGNITTVYFRSRDITAQKIAEKVLLDNERKLKTVYENSIQFLTVLDLDRKFIWFNKNARDRSPAVFGKDLIVGEVAESYIAKEYRTGFVENFNKAVAGETITYTRKYALNNAPFFLELSLAPVYNNDNTVVGVALTGIN | not soluble |
| MAHHHHHHMEKDGYTKLSEEEEQQLDNCRACMALTAVFMEEVMKPTEKLQHQLHQQQQQEGSAPRTPKNSDAVRSGERQRLVTNVHDAIDKLCDRVKERNNQVDASYDKGKEERDEKSESTEGGPIWYVSVNTAACEVALEEVSEALAREAFAQLLPERVAGTRGGGPSAVCEQENLCTARLSQHVKSEEEKAKAELEKEMRRQRELSRKNPKETLALQRAVAVGVGIMVIALWLRGRQSAKPEGDVKKD | not soluble |
| TGRVKWTLGGNIYLNRNKVDDISGNELLGTSYLAGGGVFSQSIHITKAGYPVGSFYGYVVDGVYQNEAEAKLAPFDTPQATPGSLRFKDISGPDGLPDGKITSDDMTIIGTAEPKFNYGINSELSWKGLTLSMIFTGRVGGDIANLNRYFLDSFTDTNDNIRAEAWEGRWQGEGTSNFYPAVNGSQGSSYFNKRFSTFLLEDGSFFRLKNLTLAYQFSLKKLRWLRSVRVFGTVTNVFTITNYSGYDPEVSITSGAMSPNVDYAAYPSSRTYSMGINLAF | not soluble |
| MNVNGENNEKIDEHHLESSLAGVPTLPVSPLDHAKDLSQTNPNAQIGDLVTQTANLIAIKKQLLEDIAFNQHIQSMQVRAIQSFPQNNQVAPPFQQFDPRRRGLARMQKPESYKTVICQAWLESKTCSFADNCRFAHGEEELRPTFVEPLQNNKYKTKLCDKYTTTGLCPYGKRCLFIHPDHGPNAYIRADKLLEVSQRHALADIRDQMEQHIMTNGRIAAPPLSAIQHPLEMFARPSTPDEPAAKLPLGPTPVSTRGPRYELPTKELHDAEGAMTYPPSRWPLDPSMFALDAWNMAHRPASPLDSMVLGSAPNAGSFGMLGKQNTPGGVSGYSSAGSTPSQDLSSSSLNAASAAAAAAYFANSAVAQSLLMKSVATDPMMSCNGPFSPMPGFDQLAENMTKHLNLW | not soluble |
| MCLVALAWKTHPRWRLLLAGNRDEFHERPTAPLAQWAAPAERVLAGRDLRSGGSWVGLGLDGRAAVVTNVRDPLATASGRSRGHLIADYLSGSADAATYARELAAAGQEFPPFNLLLCDAERCEHLSNHPALARALAPGIHGMSNGPLDAHWPKTTALTHALAAWCDSGSDDLQPLWTALANPATAADADLPHTGVDRATERLLSAAFIRGASYGTRASTIVAVDHHGHGFIHERRFGPDGVFQGETRLDVAGMHLEHHHHHH | not soluble |
